From patent EP1595946A2 (Sugen, Inc., dated 2005)

Target: T1, SULU1-coiled-coil2 GST fusion (Construct 1; amino acids 752-898) (human, UniProt Q5R4F3 752-898 (Pongo abelii entry))
T1 construct: Immobilised bait in T7 phage display; also called SULU1 ccl; not shown: glutathione S-transferase (GST) of vector pGEX-4T; baits were made as C-terminal fusions to GST, expressed in E. coli
T1 sequence: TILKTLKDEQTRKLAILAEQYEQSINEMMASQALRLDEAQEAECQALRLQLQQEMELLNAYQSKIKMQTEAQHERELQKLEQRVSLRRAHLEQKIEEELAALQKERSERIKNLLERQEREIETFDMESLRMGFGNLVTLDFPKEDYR
Test: T7 phage display, H441 cDNA library, GST-fused bait; interactor listed

B1: GEK2 coiled-coil domain displayed on T7 phage (677-820 of SEQ #26) (other)
chain: KESMKQKMEEHTQKKQLLDRDFVAKQKEDLELAMKRLTTDNRREICDKERECLMKKQELLRDREAALWEMEEHQLQERHQLVKQQLKDQYFLQRHELLRKHEKEREQMQRYNQRMIEQLKVRQQQEKARLPKIQRSEGKTRMAM
notes: also called GEK2 cc dom; GEK2 CC1; not shown: T7 phage coat protein of vector T7Select1-1b to which the cDNA fragment is fused
binding result: binds
